In the domain aggregation screens of Martell et al. (2025):

Assay: soluble fraction after stress (log2 fold change); higher = more stays soluble; pooled small domains, quantitative proteomics
Details: stress: pH 4
Outline: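 How much of each domain stays soluble after acid stress, expressed as a fold change, is used to gauge aggregation propensity. Pooled custom libraries of small domains underwent pH 4 stress before high-throughput quantitative proteomics. A higher log2 value means more of the domain stayed soluble.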
In the case of “HMTANPSTEEIMARVEAIPLPIKRLPPGQIVQAQTVAATVLRSNPGLDLAKAWKLAYATVTGQE”, the “soluble fraction (log2)” value is reported as -0.00256. In the case of “HMTANTQVENIRLELQRYMDEHGISQVTVARGIGKTHPVISQFLNNKYPGDVEEVARAIESWLTKQHEKAA”, the “soluble fraction (log2)” value is reported as 0.381. For “HMTAPELGIRQDGNTLVIFWPSSVTGYVLKSADAVDTPPASWTSVTHTTVGDEHRAEITPTGNSRFFRLV”, the “soluble fraction (log2)” value was -0.492. With “HMTAPQAQDYARVPDVLGLDMRESAQALRLDGFEMNAQGDGLAARQSPIGGSYAPEGTQVLVTFEM” the “soluble fraction (log2)” value was -0.0592. For “HMTAQLAAQERTHALDMFMGGYKFSSKPAENGVRAEFEKKNFTLEDGKFLGGDEFMKSLMENDDYKGAFV”, the “soluble fraction (log2)” value was -0.509. With “HMTASKSTVSTPEKVVYHIVFPKETKYSIAKKYGITIEELEKRNPEIIPSLSVGQKLVIKGTAPK” the “soluble fraction (log2)” value was 0.173. For “HMTATDRQLQLIAYTAARLMAEQGIADFNAAKRKAIQTLGLPNNAKLPGNADVEAQLRAYQRIF”, the “soluble fraction (log2)” value was 0.0539. For “HMTATKDLPFSTFITEVEKGNITSVDIKGNQIEGTFSNGAKFKTYSPNYPNLVERLADKGVAISAGPS”, the “soluble fraction (log2)” value was 0.141. With “HMTAVPADVETVTGFTALDRAGLDTLLARLGLAMDLEDLSFLQAYFRDTERRDPTLTEIRVVDTYWSDH” the “soluble fraction (log2)” value was -1.44. With “HMTDAEQHEALLFKQVVDGLPQTLRDTFVLSRHAGMTYAEISAHTGTPIKTVESRMAKALELIAQRMR” the “soluble fraction (log2)” value was 0.0158. For “HMTDDALIGKTAQVTVAIKPGSVGQITARVGDERVERLARASADAEIAAGSLVTIKSIAGDSVIVAPE”, the “soluble fraction (log2)” value was 0.22. In the case of “HMTDDPGLSRAENRELQTLLLDRGHDIGQPDGLIGAKTRAAIRAEQSRLNMPVNGRGGQKLLRALRL”, the “soluble fraction (log2)” value is reported as -0.46. For “HMTDFLKTRIDTLGLSTRTLNALSEANVRTIGGIARKKQEDLLEIDGIGEKGIQEIKKMLGEYGITL”, the “soluble fraction (log2)” value was -0.52. In the case of “HMTDFSDLSFKYNSEEKDVLNSINLKINGGEMTSLVGHSGAGKTTILNLIPRFYEKSKGDISIDGQSIY”, the “soluble fraction (log2)” value is reported as -0.172. For “HMTDGLTVPMQGVVIRYKAKKGDKVAVGDAVAVLEAMKMEQNIFANKSGTIKEIYIKEGTTVTPGDVLMSI”, the “soluble fraction (log2)” value was -0.89. With “HMTDLNDTQIKILELLSADASLSAAKMAGQLGIAGRNVEANIKKLKEKGILIRHGSPKSGYWEIVN” the “soluble fraction (log2)” value was 0.0328. For “HMTDNSTTTIRNLKIEWLLEEIRNAVRTGVSVDAAVERISNNPFVKPPEDLLNEARIIFLQNAGQI”, the “soluble fraction (log2)” value was -0.848. In the case of “HMTDPVLYEERDDIAIITINRPEKKNTLTDAVIQGIADGIDAATKSADVVAVVLRGAGDTLTAGYDLTA”, the “soluble fraction (log2)” value is reported as -1.28. In the case of “HMTDSDTQDIDVGELRVGHFVFLDLSWIRHPFPLSSFKIQSAEQIKTIRSLGLRRIRYSPGRSGP”, the “soluble fraction (log2)” value is reported as -0.882. With “HMTDSSEILEAALKEAEDAAHEVLNGTFSVQLEPQKAYIRRLQHMLIDRMNLSSTSKGKEPYRSLLVYR” the “soluble fraction (log2)” value was -0.601. In the case of “HMTDTDVLSSRLSALSSGRTSAVRLRDGVLSLVLDVGGLSIEARKAMTTAIESTARATPGVEAVRIAET”, the “soluble fraction (log2)” value is reported as 0.278. With “HMTDTSFPRLGAPEEELLSFLAKWEIDAEDAHYTKFSLYYQSTGKMMRDWKATWRAWKERQSELNAQR” the “soluble fraction (log2)” value was -1.05. In the case of “HMTDVGLEAAKAAALKHAGLSADQVTGLTAKLDWDDGQRVYEVDFWQGSTEYEYEINADGTVRQYESEAH”, the “soluble fraction (log2)” value is reported as -0.469. In the case of “HMTDVRFIDIPVTEHHPWNGMKVRDLQLPPGTLLVFLSHPGEKNTVPHGETVLRSGDVLVLGATAYTGQ”, the “soluble fraction (log2)” value is reported as -0.681. For “HMTDVRFISIPIQKEHPWNRKLVSELNLPPGTLLVFLRRTGENIVPNGKTMIQEGDVLVLGASAYR”, the “soluble fraction (log2)” value was -1.04. For “HMTEALEFTVEDLRMAGLVNSSFSRRRRELFSEKLGIGYGNGKSLLKKLNGYGITREEFNGAIQSLSD”, the “soluble fraction (log2)” value was -1.3. With “HMTEIILTARSGRHAVRHRLEGLGYTLTPEELERVHQRFLAVADAKKEVFDEDLHALMADERGT” the “soluble fraction (log2)” value was -0.467. For “HMTEKMILKWKEALERMNDDFTTKDWLNVVIHEMGKSERTAYGWLSDMKRSGIIKDLGYGSWLKVLE”, the “soluble fraction (log2)” value was -0.2. In the case of “HMTEKPTREAHILDQLARDGGVLVAALSRELGVSEVTIRSDLRDLEAAGLLQRTHGGAQASSFQTVL”, the “soluble fraction (log2)” value is reported as -0.48. With “HMTELNNTQRAAVLLLALDEDSAAEVFKHLSAREVQEVSQEMAKLGNISHDQMRQVLDDFYDESEQF” the “soluble fraction (log2)” value was -1.01. For “HMTELPLTPRSKRILEMSALEARRLNHSYIGTEHLLMAIIRDGDGVAAKILESLGVNLPNFYTDTVRSIE”, the “soluble fraction (log2)” value was -0.0691. With “HMTELSLSEQAYQQLRRMIVRLDFAPGDVLREEALQEALGMSRTPIREALQRLAREHFVTVIPRRGMFVS” the “soluble fraction (log2)” value was -1.22. With “HMTELVIPDYFSKALAKNKKAKQVFEAFAYSHRKEYLQWITEAKTEETRNKRMATAIEWIAEGKGRNWKYA” the “soluble fraction (log2)” value was ≥ 0.43. For “HMTEPIESVTTIAGRRIPYRLVRSLRARRMRMTIKESQVTVTLPRGVPLGEAERFLQQNAAWLFKQLDKP”, the “soluble fraction (log2)” value was 0.162. In the case of “HMTESIHVGSKVTINNNAKRWATGQNIYSGVKGKTYTVIQMNGSRLLLDKVISWINKGDVHLPGS”, the “soluble fraction (log2)” value is reported as 0.0896. In the case of “HMTESIKRDEAIRLNNGRIYTLDAAKIGTNEYEVMLFNPRTGEEIDSAKTSTEADAILQFDRLRRMYHR”, the “soluble fraction (log2)” value is reported as -0.151. For “HMTETELYDEVNRLIGLHLSERDRMILIMRDRDEFEIDAIAARTGLSEGNIRLILSRARRTVREAYRNNI”, the “soluble fraction (log2)” value was -1.6. For “HMTETNSVTINERLTLYRRSRSGRWQARVKLNTGEWHRFSTGTADFEKAKESAHRELHNVGFRAENNLPQ”, the “soluble fraction (log2)” value was -0.174. In the case of “HMTFDWAAYEISEKEIRVMSLVAEGFSNKEIAQELFLSEGTVRNYISNILEKLGLRDRTQLAVHYLKAV”, the “soluble fraction (log2)” value is reported as -1.52. With “HMTFENMFIENSGETLDREFLVENLRGISWQSYDRSVDVLVSRLRGKLGETPNNTRFIKTIHGVGYKFIGE” the “soluble fraction (log2)” value was -0.472. In the case of “HMTFGENLIRLRRQQGLSQEQLGMRIGVSRQTVSKWELNDTTPEMEKLIALADLFGLSLDELTGRV”, the “soluble fraction (log2)” value is reported as -0.392. With “HMTFNLDVDGDDQVTALGDGLMIIRKLFGATFAGDALTNKAISPDATRTTDEIHAYIEKGITSGVLD” the “soluble fraction (log2)” value was -0.288. For “HMTFPAILRELLEKHPQTGKRTTLKELGEAVGTRQQSISLYRNGDTQPSPDILVRIAAFFGVSVDYLL”, the “soluble fraction (log2)” value was -0.198. In the case of “HMTFPYTSLKDAPKNMKEIDGVPLTLDQVNQIAKVADSIGVSKEKNGYAIAKSQFKKSHHIENNRWVKNK”, the “soluble fraction (log2)” value is reported as 0.126. In the case of “HMTFVHTQIEATKEWIISHPLDKHPAVAVVDSAGSIVIGEVDYISKSIVRLRFTAEFSGKAYL”, the “soluble fraction (log2)” value is reported as -1.79. For “HMTGAEGKLARYLLTVPSGEPLRLSATDLAKRLGISRASLYRAFQALEDARLIRREGKSMYVLDPAGLEGV”, the “soluble fraction (log2)” value was ≥ 0.43. In the case of “HMTGENWAERSRQLAAAGLLVLGKEAQEKIASLPNLIPLIEAAAASDTRLLNAQTIDELLSFVPTEETI”, the “soluble fraction (log2)” value is reported as -0.98. For “HMTGESVPAPLSGTIFKILVAPGEQVEEGQTVIILEAMKMETEISAPRSGVVGAINIKEGDSVQVGQSLFT”, the “soluble fraction (log2)” value was 0.104. With “HMTGIKISVDRLQIGNYVKLPLNWKDHPFLFSSFAIKSQEEIDLIRRLGLKQVIMFPDKSSMPPKPV” the “soluble fraction (log2)” value was -0.0359. In the case of “HMTGLSNFEFNQIKLDLMHELTQTPLRLTDLVNRITSFENEKTITVIRFLVDEGILLLKDDTLSVAKID”, the “soluble fraction (log2)” value is reported as -1.47.
